# Laboratory results reported in patent US9821037B1, “Compounds and method of use as anti-infection compounds and therapeutic agents to regulate cholesterol metabolism” (University of Kentucky Research Foundation, priority 2013, dated 2017).
# B1: YSS: squalene synthase from S. cerevisiae (protein, UniProt P29704 1-444, looked up)
# chain: MGKLLQLALHPVEMKAALKLKFCRTPLFSIYDQSTSPYLLHCFELLNLTSRSFAAVIRELHPELRNCVTLFYLILRALDTIEDDMSIEHDLKIDLLRHFHEKLLLTKWSFDGNAPDVKDRAVLTDFESILIEFHKLKPEYQEVIKEITEKMGNGMADYILDENYNLNGLQTVHDYDVYCHYVAGLVGDGLTRLIVIAKFANESLYSNEQLYESMGLFLQKTNIIRDYNEDLVDGRSFWPKEIWSQYAPQLKDFMKPENEQLGLDCINHLVLNALSHVIDVLTYLAGIHEQSTFQFCAIPQVMAIATLALVFNNREVLHGNVKIRKGTTCYLILKSRTLRGCVEIFDYYLRDIKSKLAVQDPNFLKLNIQISKIEQFMEEMYQDKLPPNVKPNETPIFLKVKERSRYDDELVPTQQEEEYKFNMVLSIILSVLLGFYYIYTLHRA
# modifications: full-length
# notes: squalene synthase from S. cerevisiae
# B2: YSS-92: the 92 C-terminal amino acids of YSS (protein, UniProt P29704 353-444, looked up, fragment)
# chain: KSKLAVQDPNFLKLNIQISKIEQFMEEMYQDKLPPNVKPNETPIFLKVKERSRYDDELVPTQQEEEYKFNMVLSIILSVLLGFYYIYTLHRA
# Legend:
# BY4741 yeast = experiment: Saccharomyces cerevisiae growth inhibition assay (galactose-inducible over-expression of C-terminus constructs); type: cell-based; details: 4 days, 28° C.; for yeast growth with gene expression induced: BY4741, galactose as carbon source
# Description: Constructs were created in which the C-terminal 92 AA of YSS, the C-terminal 64 AA of YSS, the C-terminal 66 AA of ASS, the C-terminal 92 AA of YSS in which the 26 AA domain is replaced by the corresponding of ASS or BSS, and the C-terminus of either ASS or BSS in which the 26 AA domain is replaced by the corresponding of YSS were cloned into the pESC-Ura (Gal1 and Gal10 promoters) vector. Constructs were transformed into BY4741 yeast and positive transformants were grown in 2 mL of Yeast-Synthetic Drop-out medium for 4 days. Serial dilutions (Corresponding to O.D.600=0.5, 0.1, 0.02, and 0.004) were plated on selection media containing either glucose or galactose as the carbon source. Pictures were taken after 4 days growth at 28° C.
# To test this possibility, a gene coding for the 92 carboxy terminal residues of the yeast squalene synthase was inserted into a galactose inducible expression vector and the recombinant vector introduced into a wild type yeast (BY4741) (FIG. 7). When grown on glucose, expression of the 92 carboxy-terminal squalene synthase gene was suppressed and the transformed yeast grew normally. […] If a plant complementary carboxy-terminal gene was substituted for the yeast, no adverse effects were noted. When the 26 amino acid linker domain was deleted from the yeast gene construct, growth also was not impaired.
# Constructs to be tested in S. cerevisiae were created using the pESC-Leu vector (Agilent) which harbors the Gal1/Gal10 divergent promoter to allow for galactose induction of gene expression. Primers used to create these constructs are listed in Table 4 (restriction sites, if any, in bold). YSS-92 was created by PCR amplifying a portion of the YSS gene corresponding to the 92 C-terminal amino acids using the primer sets, YSS-92 EcoRI For and YSS NotI Rev, and YSS-92 BamHI For and YSS HindIII Rev, and cloning into pESC-Leu with the corresponding restriction enzyme sites. ASS-66 and YSS-64 were created in the same manner. ASS-YSS and YSS-ASS were created in a similar manner using YSS-ASS-YSS or ASS-YSS-ASS as the templates for PCR, respectively. […]
# [1] = test system: erg9 knockout yeast line CALI7-1; experiment: erg9 complementation assay (restoration of ergosterol prototrophy); type: cell-based, S. cerevisiae; details: construct expressed in CALI7-1; plates lacking ergosterol, 28° C., 72 h
# From the text: Various squalene synthases were cloned into the yeast expression vector, Yep352-ADH1, including those from S. cerevisiae (YSS), B. braunii (BSS), N. benthamiana (TSS), A. thaliana (ASS), and R. norvegicus (RSS), as well as a C-terminal truncated form of YSS in which 24 amino acids comprising the ER membrane-spanning region were eliminated (YSStr). These constructs were transformed into the yeast line CALI7-1, which has been selected for high level FPP biosynthesis (10) and has an erg9 knockout mutation. It is unable to synthesize sterols de novo and is dependent on exogenous ergosterol for growth. […] To evaluate the encoded enzymes for catalytic activity, extracts prepared from the CALI7-1 yeast lines were assayed for squalene synthase enzyme activity. Constructs were also expressed in TN-7 yeast line and cultures were grown in liquid media with ergosterol and subsequently analyzed for squalene accumulation. Squalene levels were determined in TN-7 because in this yeast line, there is no possibility of squalene feeding into the ergosterol biosynthetic pathway. This allows for accurate comparisons of squalene production by the various SS enzymes.
# The Cali7-1 yeast line, which has an erg9 deletion so that it cannot synthesize sterols de novo and requires exogenous ergosterol for growth, was used for these purposes (10). […]
molecule,measurement,setting,value
"KSKLAVQDPNFLKLNIQISKIEQFME (listed as Saccharomyces cerevisiae) [26 amino acid stretch of YSS, 26 amino acid linker-domain of squalene synthase from S. cerevisiae]",yeast growth with gene expression induced,BY4741 yeast,can inhibit the growth of yeast
B1,ability to complement the erg9 deletion (growth without exogenous ergosterol),[1],could restore ergosterol prototrophy
B2,yeast growth with gene expression induced,BY4741 yeast,growth was severely arrested
same,yeast growth with gene expression suppressed,"BY4741 yeast; BY4741, glucose as carbon source",grew normally
